Target: T1, human TfR ECD (human, UniProt P02786 89-760)
T1 construct: extracellular domain; also called Human Transferrin Receptor 1 extracellular domain
Experiment: SPR (Biacore 8K), human TfR ECD amine-coupled on CM3 chip, 25 C, 2-state model
Method: Target human TfR ECDs were immobilized on a CM3 chip (Cytiva P/N BR100536) using standard NHS-EDC amine coupling. The TfR binding proteins were prepared at a final concentration of 1.8, 0.6, 0.2, 0.067, 0.022, 0.0074, 0.0025 μM respectively by dilution of stock solution into running buffer.
Binding analysis was performed in a single-cycle or multi-cycle kinetics manner. Each analysis cycle consisted of (1) injection of the lowest to highest concentration proteins over all flow channel at 50 μL/min for 200 seconds followed by return to buffer flow for 900 seconds to monitor dissociation phase; (2) regeneration of chip surfaces with injection of 3M magnesium chloride, for 30 seconds at […] over all cells; and (3) equilibration of chip surfaces with a 50 μL (30-sec) injection of HBS-EP+. Data were processed using standard double-referencing and fit to a 2-state binding model using Biacore 8K Evaluation software, to determine the association rate (kₒₙ, M⁻¹s⁻¹ units), dissociation rate (koff, s⁻¹ units), and Rₘₐₓ (RU units). The equilibrium dissociation constant (KD) is calculated from the relationship KD=koff/kₒₙ, and is in molar units.

Row | Binder | Kd | koff | kon
1 | TBP8 (Fab2-VHH) (Fab) heavy: EVQLVESGGGLVKPGGSLRLSCVASGFTFSSYSMNWVRQAPGKGLEWVSSISSSSSYIYYADSVKGRFTISRDNAKNSLYLQMNSLRAEDTAVYYCARRHGYSNSDAFDTWGQGTLVTVSSASTKGPCVFPLAPSSKSTSGGTAALGCLVKDYFPEPVTVSWNSGALTSGVHTFPAVLQSSGLYSLSSVVTVPSSSLGTQTYICNVNHKPSNTKVDKRVGGGGQGGGGQGGGGQGGGGQGGGGQEVQLLESGGGLVQPGGSLRLSCAASGRYIDETAVAWFRQAPGKGREFVAGIGGGVDITYYADSVKGRFTISRDNSKNTLYLQMNSLRPEDTAVYYCGARPGRPLITSKVADLYPYWGQGTLVTVSSPP light: DIQMTQSPSAMSASVGDRVTITCRASQGISHYLVWFQQKPGKVPKRLIYAASSLQSGVPSRFSGSGSGTEFTLTISSLQPEDFATYYCLQHNSYPWTFGQGTKVEIKRTVAAPSVFIFPPSDEQLKSGTASVVCLLNNFYPREAKVQWKVDNALQSGNSQESVTEQDSKDSTYSLSSTLTLSKADYEKHKVYACEVTHQGLSSPVTKSFNRGE | 18.6 nM | 0.00671 s⁻¹ | 361000 M⁻¹ s⁻¹
2 | TBP5 (Fab1-One Arm Heteromab 2, S124C) (antibody, human IgG4 S228P, kappa, F234A L235A, One-arm heteromab, hIgG4 PAA, tested as the unconjugated protein; also called OAH2) heavy 1: EVQLVESGGGLVKPGGSLRLSCVASGFTFSSYSMNWVRQAPGKGLEWVSSISSSSSYIYYADSVKGRFTISRDNAKNSLYLQMNSLRAEDTAVYYCARRHGYSNSDAFDNWGQGTLVTVSSASTKGPCVFPLAPCSRSTSESTAALGCLVKDYFPEPVTVSWNSGALTSGVHTFPAVLQSSGLYSLSSVVTVPSSSLGTKTYTCNVDHKPSNTKVDKRVESKYGPPCPPCPAPEAAGGPSVFLFPPKPKDTLMISRTPEVTCVVVDVSQEDPEVQFNWYVDGVEVHNAKTKPREEQFNSTYRVVSVLTVLHQDWLNGKEYKCKVSNKGLPSSIEKTISKAKGQPREPQVSTLPPSQEEMTKNQVSLMCLVYGFYPSDIAVEWESNGQPENNYKTTPPVLDSDGSFFLYSVLTVDKSRWQEGNVFSCSVMHEALHNHYTQKSLSLSLG light: DIQMTQSPSAMSASVGDRVTITCRASQGISHYLVWFQQKPGKVPKRLIYAASSLQSGVPSRFSGSGSGTEFTLTISSLQPEDFATYYCLQHNSYPWTFGQGTKVEIKRTVAAPSVFIFPPSDEQLKSGTASVVCLLNNFYPREAKVQWKVDNALQSGNSQESVTEQDSKDSTYSLSSTLTLSKADYEKHKVYACEVTHQGLSSPVTKSFNRGEC heavy 2: ESKYGPPCPPCPAPEAAGGPSVFLFPPKPKDTLMISRTPEVTCVVVDVSQEDPEVQFNWYVDGVEVHNAKTKPREEQFNSTYRVVSVLTVLHQDWLNGKEYKCKVSNKGLPSSIEKTISKAKGQPREPQVYTLPPSQGDMTKNQVQLTCLVKGFYPSDIAVEWESNGQPENNYKTTPPVLDSDGSFFLASRLTVDKSRWQEGNVFSCSVMHEALHNHYTQKSLSLSLG | 12.4 nM | – | –
